What all share (test): Co-AP mass spectrometry with TMT quantification
One test has as its target PSMB4. The settings on record: HEK293 cells; TMT intensities of interactors normalized to Tg intensities; read off a plot.
The target in another test is PRKCSH. The settings on record: HEK293 cells; TMT intensities of interactors normalized to Tg intensities; read off a plot.
Another test has as its target PSME2. The settings on record: HEK293 cells; TMT intensities of interactors normalized to Tg intensities; read off a plot.
The target of a further test is PSMD3. The settings on record: HEK293 cells; TMT intensities of interactors normalized to Tg intensities; read off a plot.
The target in another test is PSMA1. The settings on record: HEK293 cells; TMT intensities of interactors normalized to Tg intensities; read off a plot.
A further test has as its target UGGT2. The settings on record: HEK293 cells; TMT intensities of interactors normalized to Tg intensities; read off a plot.
The next test deals with MOGS. The settings on record: HEK293 cells; TMT intensities of interactors normalized to Tg intensities; read off a plot.
For the next test, the target named is PSMC4. The settings on record: HEK293 cells; TMT intensities of interactors normalized to Tg intensities; read off a plot.
For test [1], the target named is calreticulin [human (endogenous in HEK293 cells)]. The settings on record: TMT intensities of interactors normalized to Tg intensities, read off a plot.
Test [2] has as its target oligosaccharyl transferase complex catalytic subunit A [human (endogenous in HEK293 cells)]. The settings on record: TMT intensities of interactors normalized to Tg intensities, read off a plot.
For test [3], the target named is RAD-dependent oxidoreductase domain containing 2 [human (endogenous in HEK293 cells)]. The settings on record: TMT intensities of interactors normalized to Tg intensities, read off a plot.

Take “FLAG-tagged thyroglobulin, WT (from UniProt P01266) A2234D”: the other: log2 fold change vs WT in the test with PSMB4 is -0.33 log2; in the test with PRKCSH, -0.39 log2; with PSME2 it was -0.27 log2; with PSMD3, -0.35 log2; in the test with PSMA1, -0.28 log2; in the test with UGGT2 it was 0.15 log2. The other: log2 fold change vs WT with MOGS stood at 0.09 log2.

For the substance “FLAG-tagged thyroglobulin, WT (from UniProt P01266) C1264R”, the other: log2 fold change vs WT with PSMB4 is -0.35 log2; in the test with PRKCSH, -0.05 log2; with PSMC4 it was -0.53 log2; with PSME2, -0.54 log2; with PSMD3 it was -0.45 log2; with PSMA1 it was -0.27 log2. Moreover, the results for the other: log2 fold change vs WT in the test with UGGT2 and in the test with MOGS were -0.09 log2 and -0.15 log2, respectively.

For the substance “FLAG-tagged thyroglobulin, WT (from UniProt P01266) G2341R”, the other: log2 fold change vs WT in the test with PSMB4 was -0.53 log2; in the test with PSMC4 it was -0.51 log2; with PSME2, -0.65 log2; in the test with PSMD3 it was -0.42 log2; with PSMA1, 0.04 log2; with UGGT2, 0.73 log2. Moreover, in the test with MOGS, the other: log2 fold change vs WT is -0.05 log2.

With “FLAG-tagged thyroglobulin, WT (from UniProt P01266) L2284P”, the other: log2 fold change vs WT in the test with PSMB4 is -0.51 log2; with PSMC4, -0.27 log2; with PSME2, -0.45 log2; with PSMD3, -0.33 log2; with PSMA1, -0.04 log2; with UGGT2, 0.49 log2. For the same substance, the other: log2 fold change vs WT with MOGS was -0.02 log2.

With “FLAG-tagged thyroglobulin, WT mutant A2234D [human] / calreticulin [human (endogenous in HEK293 cells)] chain 1 A2215D”, the screen value in test [1] is 0.07 log2.

“FLAG-tagged thyroglobulin, WT mutant A2234D [human] / oligosaccharyl transferase complex catalytic subunit A [human (endogenous in HEK293 cells)] chain 1 A2215D”: the screen value in test [2] was -0.15 log2.

In [1], “FLAG-tagged thyroglobulin, WT mutant C1264R [human] / calreticulin [human (endogenous in HEK293 cells)] chain 1 C1245R” came in with a screen value of 0.18 log2.

As for “FLAG-tagged thyroglobulin, WT mutant C1264R [human] / oligosaccharyl transferase complex catalytic subunit A [human (endogenous in HEK293 cells)] chain 1 C1245R”, the screen value in [2] was -0.37 log2.

As for “FLAG-tagged thyroglobulin, WT mutant G2341R [human] / calreticulin [human (endogenous in HEK293 cells)] chain 1 G2322R”, the screen value in test [1] was found to be 0.46 log2.

Regarding “FLAG-tagged thyroglobulin, WT mutant G2341R [human] / oligosaccharyl transferase complex catalytic subunit A [human (endogenous in HEK293 cells)] chain 1 G2322R”, the screen value in [2] is -0.21 log2.

“FLAG-tagged thyroglobulin, WT mutant L2284P [human] / RAD-dependent oxidoreductase domain containing 2 [human (endogenous in HEK293 cells)] chain 1 L2265P”: the screen value in [3] worked out at 0.58 log2.

On to “FLAG-tagged thyroglobulin, WT mutant L2284P [human] / calreticulin [human (endogenous in HEK293 cells)] chain 1 L2265P”, for which the screen value in test [1] is 0.5 log2.

For the substance “FLAG-tagged thyroglobulin, WT mutant L2284P [human] / oligosaccharyl transferase complex catalytic subunit A [human (endogenous in HEK293 cells)] chain 1 L2265P”, the screen value in test [2] is -0.1 log2.

These data come from paper PMC7950113.
